Data on 11 variants can be found in IntAct's records for PubMed 35512704.

B1: Mothers against decapentaplegic homolog 4 (Homo sapiens), Q13485 (parent)
chain: MDNMSITNTPTSNDACLSIVHSLMCHRQGGESETFAKRAIESLVKKLKEKKDELDSLITAITTNGAHPSKCVTIQRTLDGRLQVAGRKGFPHVIYARLWRWPDLHKNELKHVKYCQYAFDLKCDSVCVNPYHYERVVSPGIDLSGLTLQSNAPSSMMVKDEYVHDFEGQPSLSTEGHSIQTIQHPPSNRASTETYSTPALLAPSESNATSTANFPNIPVASTSQPASILGGSHSEGLLQIASGPQPGQQQNGFTGQPATYHHNSTTTWTGSRTAPYTPNLPHHQNGHLQHHPPMPPHPGHYWPVHNELAFQPPISNHPAPEYWCSIAYFEMDVQVGETFKVPSSCPIVTVDGYVDPSGGDRFCLGQLSNVHRTEAIERARLHIGKGVQLECKGEGDVWVRCLSDHAVFVQSYYLDREAGRAPGDAVHKIYPSAYIKVFDLRQCHRQMQQQAATAQAAAAAQAAAVAGNIPGPGSVGGIAPAISLSAAAGIGVDDLRRLCILRMSFVKGWGPDYPRQSIKETPCWIEIHLHRALQLLDEVLHTMPIADPQPLD
partner: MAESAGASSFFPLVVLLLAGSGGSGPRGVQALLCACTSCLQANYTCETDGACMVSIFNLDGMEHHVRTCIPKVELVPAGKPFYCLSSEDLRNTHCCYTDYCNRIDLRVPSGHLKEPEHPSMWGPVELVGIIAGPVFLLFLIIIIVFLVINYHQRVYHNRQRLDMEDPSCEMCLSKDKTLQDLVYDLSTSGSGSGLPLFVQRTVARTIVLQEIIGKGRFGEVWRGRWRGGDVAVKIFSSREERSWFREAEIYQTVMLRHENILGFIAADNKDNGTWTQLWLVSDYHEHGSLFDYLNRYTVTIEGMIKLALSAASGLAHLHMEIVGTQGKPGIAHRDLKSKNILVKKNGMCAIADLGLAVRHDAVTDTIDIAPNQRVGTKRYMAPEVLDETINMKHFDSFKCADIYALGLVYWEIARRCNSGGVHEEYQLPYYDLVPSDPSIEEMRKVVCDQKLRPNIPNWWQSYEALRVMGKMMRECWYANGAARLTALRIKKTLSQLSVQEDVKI
B2: Mothers against decapentaplegic homolog 4 (Homo sapiens), Q13485 (parent)
chain: B1 chain
partner: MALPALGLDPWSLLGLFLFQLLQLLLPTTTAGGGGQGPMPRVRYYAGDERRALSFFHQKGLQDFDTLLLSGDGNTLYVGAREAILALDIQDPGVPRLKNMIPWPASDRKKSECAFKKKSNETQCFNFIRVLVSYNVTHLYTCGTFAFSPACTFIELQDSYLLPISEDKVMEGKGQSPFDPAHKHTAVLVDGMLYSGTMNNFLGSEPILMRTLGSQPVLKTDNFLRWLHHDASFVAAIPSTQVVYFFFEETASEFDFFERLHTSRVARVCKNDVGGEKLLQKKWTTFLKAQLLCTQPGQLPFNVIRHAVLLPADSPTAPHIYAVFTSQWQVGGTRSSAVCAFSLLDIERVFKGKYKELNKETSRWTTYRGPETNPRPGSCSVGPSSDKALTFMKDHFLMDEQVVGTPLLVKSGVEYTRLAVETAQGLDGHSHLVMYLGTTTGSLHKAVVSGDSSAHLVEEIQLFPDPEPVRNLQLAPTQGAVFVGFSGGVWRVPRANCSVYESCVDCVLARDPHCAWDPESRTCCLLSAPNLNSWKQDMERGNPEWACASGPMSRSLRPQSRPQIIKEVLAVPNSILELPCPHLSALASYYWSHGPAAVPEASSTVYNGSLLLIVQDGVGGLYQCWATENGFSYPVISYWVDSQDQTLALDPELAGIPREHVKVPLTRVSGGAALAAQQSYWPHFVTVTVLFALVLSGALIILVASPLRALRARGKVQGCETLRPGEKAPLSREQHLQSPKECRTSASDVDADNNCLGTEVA
B3: Mothers against decapentaplegic homolog 4 (Homo sapiens), Q13485 (parent)
chain: B1 chain
partner: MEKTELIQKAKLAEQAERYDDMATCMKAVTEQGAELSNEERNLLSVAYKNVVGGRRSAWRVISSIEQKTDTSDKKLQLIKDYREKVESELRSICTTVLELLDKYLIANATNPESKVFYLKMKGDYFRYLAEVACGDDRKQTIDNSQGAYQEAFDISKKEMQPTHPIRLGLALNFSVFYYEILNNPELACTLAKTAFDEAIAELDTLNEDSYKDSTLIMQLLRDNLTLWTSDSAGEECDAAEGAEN
B4: Mothers against decapentaplegic homolog 4 (Homo sapiens), Q13485 (parent)
chain: B1 chain
partner: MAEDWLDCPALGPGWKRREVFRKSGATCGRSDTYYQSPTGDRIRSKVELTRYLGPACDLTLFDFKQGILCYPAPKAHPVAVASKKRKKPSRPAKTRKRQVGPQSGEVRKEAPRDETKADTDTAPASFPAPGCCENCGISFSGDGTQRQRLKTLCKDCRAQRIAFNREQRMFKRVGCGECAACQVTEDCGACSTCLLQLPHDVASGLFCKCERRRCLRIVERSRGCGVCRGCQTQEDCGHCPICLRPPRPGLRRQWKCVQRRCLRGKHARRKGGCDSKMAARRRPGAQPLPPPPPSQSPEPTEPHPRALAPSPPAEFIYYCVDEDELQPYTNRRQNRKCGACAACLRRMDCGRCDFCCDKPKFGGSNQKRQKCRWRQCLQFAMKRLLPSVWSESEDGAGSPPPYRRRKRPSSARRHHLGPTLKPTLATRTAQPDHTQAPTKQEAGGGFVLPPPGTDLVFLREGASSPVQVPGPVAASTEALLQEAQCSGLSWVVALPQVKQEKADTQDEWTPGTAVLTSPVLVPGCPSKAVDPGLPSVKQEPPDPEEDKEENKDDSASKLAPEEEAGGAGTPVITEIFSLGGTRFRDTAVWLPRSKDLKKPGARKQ

The first test covers variants of B1. Conditions: with acv1b_human ACVR1B.
Turning to G386D, the “effect of a mutation on the interaction” value is “with no effect”.

In another test the parent is B1. Conditions: with acv1b_human ACVR1B. The source holds these as a separate data set.
G386D: the “effect of a mutation on the interaction” value is “increasing interaction strength”.

Variants of B2 are the subject of the next test. Conditions: with sem4a_human SEMA4A.
R361C: the “effect of a mutation on the interaction” value is given as “with no effect”.

A further test covers variants of B2. Conditions: with sem4a_human SEMA4A. This is another data set of the same source.
R361H: the “effect of a mutation on the interaction” value is “with no effect”.

Variants of B2 are the subject of a further test. Conditions: with sem4a_human SEMA4A. The source holds these as a separate data set.
On to G386D, for which the “effect of a mutation on the interaction” value is recorded as “with no effect”.

Variants of B2 are the subject of the next test. Conditions: with sem4a_human SEMA4A. This is another data set of the same source.
With D351H, the “effect of a mutation on the interaction” value is “with no effect”.

Variants of B3 are the subject of the next test. Conditions: with 1433t_human YWHAQ.
For the variant G386D, the “effect of a mutation on the interaction” value is recorded as “with no effect”.

A further test covers variants of B3. Conditions: with 1433t_human YWHAQ. The source holds these as a separate data set.
For the variant D351H, the “effect of a mutation on the interaction” value is “with no effect”.

Another test covers variants of B3. Conditions: with 1433t_human YWHAQ. This is another data set of the same source.
Turning to R361C, the “effect of a mutation on the interaction” value is “with no effect”.

The variants in a further test derive from B3. Conditions: with 1433t_human YWHAQ. The source holds these as a separate data set.
Take R361H: the “effect of a mutation on the interaction” value is listed as “with no effect”.

Variants of B4 are the subject of the next test. Conditions: with mbd1_human MBD1, Q9UIS9.
On to D351H, for which the “effect of a mutation on the interaction” value is “with no effect”.

Variants of B4 are the subject of the next test. Conditions: with mbd1_human MBD1, Q9UIS9. The source holds these as a separate data set.
In the case of G386D, the “effect of a mutation on the interaction” value is on record as “with no effect”.
